Measured values taken from article PMC2946066 (Toxicon : official journal of the International Society on …, 2010).

Molecular target: CFP/B-Lc (BoNT/B protease fused to CFP) (Clostridium botulinum, BoNT type B; …, UniProt P10844)
Assay: pull-down

B1: YFP/B10 (VHH BLc-B10 fused to an amino terminal streptavidin binding peptide and YFP) (VHH)
VHH: QLQLVESGGGMVQPGGSLRLSCAASGFTFSTYDMSWVRQAPGKGPEWVSIINAGGGSTYYAASVKGRFAISRDNAKNTLYLQMNNLKPEDTALYYCARVASYYCRGYVCSPPEFDYWGQGTQVTVSS
- binding result: binds
